Results from US20240209065A1.

How the values were obtained:
Assay in all cases: cell-based or functional assay
[1] = biological target: S protein of Pangolin-GD on S-pseudotyped VSV (Pangolin-GD (clade 1b sarbecovirus))
[2] = biological target: S protein of authentic SARS-CoV-2 G614 virus (SARS-CoV-2) (UniProt P0DTC2)
[3] = biological target: S protein of RaTG13 on S-pseudotyped VSV (RaTG13 (clade 1b sarbecovirus))

With DXP-604 IgG (antibody) the IC50, S-pseudotyped VSV neutralization assay [1] was 0.05 nM, the IC50, microneutralization assay with authentic virus [2] was 0.3 nM and the IC50, S-pseudotyped VSV neutralization assay [3] was 0.01 nM.
